The record followed here is paper doi:10.1101/2024.05.23.595586.

This assay has as its target TREM2 (a.a. 19-134), biotinylated, WT (human) (UniProt Q9NZC2). The assay can be described thus: BLI.

Chain of TREM2 (a.a. 19-134), biotinylated, WT (human) (Q9NZC2 19-134): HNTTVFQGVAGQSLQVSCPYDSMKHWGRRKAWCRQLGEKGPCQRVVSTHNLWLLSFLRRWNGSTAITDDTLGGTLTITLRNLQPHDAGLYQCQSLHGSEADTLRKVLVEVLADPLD

As usually defined, the Kd is the equilibrium constant for the complex coming apart. Turning to “oligomeric amyloid beta 42 (oAβ42) WT (peptide)”, the Kd came to 42.5 nM. This counts as double-digit nanomolar.
